# Tested on: HBMEC
# Test: In vitro flow chamber: T cell-rolling on HBMEC, long-term conditions
# Type: cell-based, human
# Conditions: non-stimulated HBMEC, 45 min
# Method: Human brain microvascular endothelial cells (HBMEC) (#1000, Sciencell Research Laboratories) or human umbilical vein endothelial cells (HUVEC) (#C-12200, Promocell) were used as endothelial cell-model. Cryopreserved HBMEC at passage 1 (>5×10^5 cells/ml) were first cultivated in fibronectin-coated Nunclon-treated 75 cm^2 cell culture flasks (#156499, Nunc) at 37° C. and 5% CO2 in a Heraeus Cytoperm 2 (Thermo Scientific) according to the manufacturer's instructions. Sub-cultivation of HBMEC was done with the Detach Kit (#C-41200, Promocell) consisting of HEPES-buffered balanced salt solution (#C-40000, Promocell), trypsin-EDTA solution (0.04%/0.03%) (#C-41000, Promocell) and trypsin neutralization solution (TNS, #C-41100, Promocell). Briefly, the medium was aspirated from the HBMEC-layer and cells were washed with 2 ml of HEPES-buffered balanced salt solution. Addition of 2 ml of trypsin-EDTA solution for 1-5 min at room temperature led to detachment of HBMEC from the flask bottom. Inactivation of trypsin-EDTA solution was performed by addition of 2 ml of trypsin neutralization solution to the cell suspension. Cells were centrifuged at 300 g for 4 min in a Heraeus Megafuge 40 (Thermo Scientific) and seeded at a cell density of 5×10^5 cells per gelatin-coated 75 cm^2 cell culture flask (#L7230, Biochrom). […]
molecule,measurement,setting,value
"recombinant P-selectin: recombinant human P-selectin (#ADP3-050, R&D Systems) (protein) WTYHYSTKAYSWNISRKYCQNRYTDLVAIQNKNEIDYLNKVLPYYSSYYWIGIRKNNKTWTWVGTKKALTNEAENWADNEPNNKRNNEDCVEIYIKSPSAPGKWNDEHCLKKKHALCYTASCQDMSCSKQGECLETIGNYTCSCYPGFYGPECEYVRECGELELPQHVLMNCSHPLGNFSFNSQCSFHCTDGYQVNGPSKLECLASGIWTNKPPQCLAAQCPPLKIPERGNMTCLHSAKAFQHQSSCSFSCEEGFALVGPEVVQCTASGVWTAPAPVCKAVQCQHLEAPSEGTMDCVHPLTAFAYGSSCKFECQPGYRVRGLDMLRCIDSGHWSAPLPTCEAISCEPLESPVHGSMDCSPSLRAFQYDTNCSFRCAEGFMLRGADIVRCDNLGQWTAPAPVCQALQCQDLPVPNEARVNCSHPFGAFRYQSVCSFTCNEGLLLVGASVLQCLATGNWNSVPPECQAIPCTPLLSPQNGTMTCVQPLGSSSYKSTCQFICDEGYSLSGPERLDCTRSGRWTDSPPMCEAIKCPELFAPEQGSLDCSDTRGEFNVGSTCHFSCDNGFKLEGPNNVECTTSGRWSATPPTCKGIASLPTPGVQCPALTTPGQGTMYCRHHPGTFGFNTTCYFGCNAGFTLIGDSTLSCRPSGQWTAVTPACRAVKCSELHVNKPIAMNCSNLWGNFSYGSICSFHCLEGQLLNGSAQTACQENGHWSTTVPTCQAGPLTIQEALTYFGGAVASTIGLIMGGTLLALLRKRFRQKDDGKCPLNPHSHLGTYGVFTNAAFDPSP",mean T cell-rolling velocity±SD,"T cells pre-incubated with 5 μg/ml recombinant P-selectin, +AMG 103 10 ng/ml",402±93 μm/sec
same,mean T cell-rolling velocity±SD,"−AMG 103, +rec. P-selectin 5 μg/ml",384±70 μm/sec
